Experimental data published in the supplement of paper PMC9112550, “Optimization of the antimicrobial peptide Bac7 by deep mutational scanning” (BMC Biology, 2022).

tested on: Escherichia coli TOP10; test: shrunken log2 fold change of peptide-encoding DNA abundance (4.5 h post-induction vs induction); higher = less antimicrobial activity (less host growth inhibition); details: time post-induction: 4.5 h; library: site-saturation at positions 5, 18, 19, 20
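Note: peptides expressed intracellularly from a pBAD plasmid library in pooled LB shake-flask culture, induced with 0.3% L-arabinose, DNA abundance read by NGS, three biological replicates, DESeq2 with apeglm shrinkage.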

Sequence	shrunken log2 fold change
RRIRMRPPRLPRPRPRPPFEPRP	0.492
RRIRWRPPRLPRPRPRPQDQPRP	0.0586
RRIRRRPPRLPRPRPRPLYQPRP	-0.315
RRIRCRPPRLPRPRPRPRFHPRP	-0.393
RRIRLRPPRLPRPRPRPYTGPRP	-0.125
RRIRIRPPRLPRPRPRPVVTPRP	-0.408
RRIRTRPPRLPRPRPRPIKHPRP	-0.454
RRIRVRPPRLPRPRPRPGCPPRP	0.181
RRIRYRPPRLPRPRPRPCTYPRP	-0.194
RRIRLRPPRLPRPRPRPNHLPRP	0.0169
RRIRERPPRLPRPRPRPVWLPRP	-0.0259
RRIRNRPPRLPRPRPRPGHMPRP	-0.147
RRIRFRPPRLPRPRPRPGMHPRP	-0.24
RRIRNRPPRLPRPRPRPHNKPRP	-0.483
RRIRCRPPRLPRPRPRPQLSPRP	0.122
RRIRTRPPRLPRPRPRPQWLPRP	-0.455
RRIRGRPPRLPRPRPRPCILPRP	0.0804
RRIRSRPPRLPRPRPRPPSDPRP	0.385
RRIRVRPPRLPRPRPRPDRCPRP	0.0141
RRIRYRPPRLPRPRPRPRHSPRP	-0.127
RRIRWRPPRLPRPRPRPGIAPRP	0.411
RRIRIRPPRLPRPRPRPNPPPRP	0.125
RRIRARPPRLPRPRPRPGQHPRP	-0.0452
RRIRMRPPRLPRPRPRPMLDPRP	0.722
RRIRNRPPRLPRPRPRPMDEPRP	0.358

Sequence	shrunken log2 fold change
RRIRQRPPRLPRPRPRPEYAPRP	-0.042
RRIRMRPPRLPRPRPRPWTYPRP	-0.0551
RRIRYRPPRLPRPRPRPWFMPRP	-0.356
RRIRVRPPRLPRPRPRPWGTPRP	-0.402
RRIRARPPRLPRPRPRPWVIPRP	-0.296
RRIRHRPPRLPRPRPRPIVEPRP	-0.133
RRIRTRPPRLPRPRPRPRHAPRP	0.329
RRIRVRPPRLPRPRPRPCMPPRP	0.112
RRIRARPPRLPRPRPRPKLPPRP	0.184
RRIRLRPPRLPRPRPRPGASPRP	0.642
RRIRARPPRLPRPRPRPWGPPRP	-0.119
RRIRDRPPRLPRPRPRPEVEPRP	1.68
RRIRYRPPRLPRPRPRPSGDPRP	-0.514
RRIRWRPPRLPRPRPRPTIQPRP	0.0488
RRIRCRPPRLPRPRPRPMHEPRP	-0.00208
RRIRERPPRLPRPRPRPTIQPRP	-0.0576
RRIRYRPPRLPRPRPRPAPCPRP	-0.0799
RRIRERPPRLPRPRPRPDAGPRP	-0.0396
RRIRVRPPRLPRPRPRPERPPRP	0.0183
RRIRRRPPRLPRPRPRPMCYPRP	-0.069
RRIRPRPPRLPRPRPRPRWRPRP	0.542
RRIRPRPPRLPRPRPRPFIEPRP	-0.245
RRIRWRPPRLPRPRPRPPIWPRP	0.628
RRIRKRPPRLPRPRPRPDITPRP	2.24
RRIRVRPPRLPRPRPRPAYCPRP	-0.112

Sequence	shrunken log2 fold change
RRIRKRPPRLPRPRPRPMIRPRP	0.134
RRIRVRPPRLPRPRPRPIGWPRP	0.213
RRIRIRPPRLPRPRPRPMVDPRP	-0.0165
RRIRVRPPRLPRPRPRPLPEPRP	0.423
RRIRIRPPRLPRPRPRPVFEPRP	0.0673
RRIRSRPPRLPRPRPRPCHYPRP	-0.0214
RRIRHRPPRLPRPRPRPKQYPRP	-0.439
RRIRPRPPRLPRPRPRPTWWPRP	0.426
RRIRYRPPRLPRPRPRPQMCPRP	-0.0257
RRIRSRPPRLPRPRPRPVSEPRP	-0.125
RRIRKRPPRLPRPRPRPWGVPRP	0.291
RRIRHRPPRLPRPRPRPCSQPRP	-0.00141
RRIRERPPRLPRPRPRPIGLPRP	-0.293
RRIRLRPPRLPRPRPRPHTRPRP	-0.0601
RRIRVRPPRLPRPRPRPELCPRP	0.0749
RRIRYRPPRLPRPRPRPNFPPRP	-0.313
RRIRNRPPRLPRPRPRPHEGPRP	-0.015
RRIRSRPPRLPRPRPRPQQMPRP	-0.155
RRIRKRPPRLPRPRPRPSFQPRP	0.0564
RRIRMRPPRLPRPRPRPDENPRP	2.68
RRIRPRPPRLPRPRPRPSNVPRP	-0.463
RRIRDRPPRLPRPRPRPYYHPRP	-0.972
RRIRKRPPRLPRPRPRPQYRPRP	-0.185
RRIRGRPPRLPRPRPRPKCEPRP	1.14
RRIRFRPPRLPRPRPRPILNPRP	-0.692
